Measurements published in patent US20150018530A1.
pEC50, pIC50: −log10 of the molar value.

Experiments:
[1] = target: EGF receptor on A431 cells (UniProt P00533); assay: flow cytometry on A431 cells; concentration of mAb108 used in the competition assay
[2] = target: EGF receptor on A431 cells (UniProt P00533); assay: Flow cytometry binding curve of the Fab on A431 cells (binding conditions 'as described previously'); y axis Median rises from about 20 to about 790
[3] = target: EGF receptor on A431 cells (UniProt P00533); assay: competition flow cytometry on A431 cells; scFv pre-bound, mAb108 at 7.5 nM as competitor, APC anti-mouse detection
[4] = target: EGF receptor on A431 cells (UniProt P00533); assay: Competition flow cytometry on A431 cells: cells incubated with the scFv at varied concentration and washed, then mAb108 at 7.5 nM, detected with APC-labelled anti-mouse antibody; y axis Median
[5] = target: EGF receptor on A431 cells (UniProt P00533); assay: flow cytometry on A431 cells; binding conditions 'as described previously' (competition with mAb108)

Sequence of wild type scFv-108 (periplasmic) (scFv): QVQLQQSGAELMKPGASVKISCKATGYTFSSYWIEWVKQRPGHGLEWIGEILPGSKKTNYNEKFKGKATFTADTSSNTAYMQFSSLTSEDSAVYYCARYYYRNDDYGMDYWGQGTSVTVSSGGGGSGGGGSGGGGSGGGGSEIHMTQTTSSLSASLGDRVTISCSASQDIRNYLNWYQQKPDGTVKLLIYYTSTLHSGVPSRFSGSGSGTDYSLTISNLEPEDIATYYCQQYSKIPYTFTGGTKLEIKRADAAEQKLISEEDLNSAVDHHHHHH

An EC80 [1] of 7.5 nM was found for “EGFR-specific monoclonal antibody mAb108 (ATCC #HB 9764)” in this work.

A pEC50 [2] of 8.21 was found for “Fab-108 Thr204 pAF (from UniProt P01834 1-107)” in this work.

An IC50 relative to the wild type scFv [3] of 2.6 x was found for scFv-108 His144pAF in this work.

An IC50 relative to the wild type scFv [3] of 1.8 x was found for scFv-108 Leu156pAF in this work.

An IC50 relative to the wild type scFv [3] of 1.3 x was found for scFv-108 Ser131pAF in this work.

An IC50 relative to the wild type scFv [3] of 1.6 x and a pIC50 [4] of 7.88 were found for scFv-108 Ser136pAF in this work.

An IC50 relative to the wild type scFv [3] of 6.3 x and a pIC50 [4] of 7.29 were found for scFv-108 Ser136pAF-5K PEG in this work.

An IC50 relative to the wild type scFv [3] of 1.8 x was found for scFv-108 Ser193pAF in this work.

A pEC50 [5] of 8.52 was found for “wild type Fab-108 (from UniProt P01834 1-107)” in this work.

A pIC50 [3] of 8.09 was found for wild type scFv-108 (periplasmic) in this work.
